Source: IntAct's records for PubMed 29892012

Legend:
zn446_human ZNF446 = zn446_human ZNF446 (UniProt Q9NWS9)
pdli7_human PDLIM7 = pdli7_human PDLIM7 (UniProt Q9NR12)
leg9b_human LGALS9B = leg9b_human LGALS9B (UniProt Q3B8N2)
erep1_human ENTREP1 = erep1_human ENTREP1 (UniProt Q15884)
fxl18_human FBXL18 = fxl18_human FBXL18 (UniProt Q96ME1)
hnrl1_human HNRNPUL1 = hnrl1_human HNRNPUL1 (UniProt Q9BUJ2)
dpyl2_human DPYSL2 = dpyl2_human DPYSL2 (UniProt Q16555)
U2AF1 = U2AF1 (UniProt Q01081)
qki_human QKI = qki_human QKI (UniProt Q96PU8)
abi2_human ABI2 = abi2_human ABI2 (UniProt Q9NYB9)
rbm7_human RBM7 = rbm7_human RBM7 (UniProt Q9Y580)
rbm7_human RBM7, sequence (Q9Y580 whole entry): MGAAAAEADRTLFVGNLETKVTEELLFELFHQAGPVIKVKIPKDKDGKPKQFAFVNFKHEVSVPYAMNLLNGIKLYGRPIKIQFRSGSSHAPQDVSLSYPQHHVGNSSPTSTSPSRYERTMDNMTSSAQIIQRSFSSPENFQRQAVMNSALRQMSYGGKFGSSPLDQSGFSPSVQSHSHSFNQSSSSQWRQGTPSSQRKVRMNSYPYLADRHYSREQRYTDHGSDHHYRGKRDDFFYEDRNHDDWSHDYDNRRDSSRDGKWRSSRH

hnrll_human HNRNPLL = hnrll_human HNRNPLL (UniProt Q8WVV9)
rbm42_human RBM42 = rbm42_human RBM42 (UniProt Q9BTD8)
rbm42_human RBM42, sequence (Q9BTD8 whole entry): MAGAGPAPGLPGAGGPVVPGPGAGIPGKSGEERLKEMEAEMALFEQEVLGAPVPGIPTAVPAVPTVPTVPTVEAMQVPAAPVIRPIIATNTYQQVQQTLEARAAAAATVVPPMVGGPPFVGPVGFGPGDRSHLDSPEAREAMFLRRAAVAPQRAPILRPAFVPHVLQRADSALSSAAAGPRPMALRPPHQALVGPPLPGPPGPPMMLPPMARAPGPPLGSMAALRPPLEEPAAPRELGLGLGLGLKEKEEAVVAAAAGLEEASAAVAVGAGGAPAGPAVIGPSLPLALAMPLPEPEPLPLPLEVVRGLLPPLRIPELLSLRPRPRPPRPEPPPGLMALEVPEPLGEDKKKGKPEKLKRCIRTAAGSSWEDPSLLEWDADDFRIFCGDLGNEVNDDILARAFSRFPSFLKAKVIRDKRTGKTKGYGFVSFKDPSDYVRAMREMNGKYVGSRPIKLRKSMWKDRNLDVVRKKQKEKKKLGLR

cirbp_human CIRBP = cirbp_human CIRBP (UniProt Q14011)
cirbp_human CIRBP, sequence (Q14011 whole entry): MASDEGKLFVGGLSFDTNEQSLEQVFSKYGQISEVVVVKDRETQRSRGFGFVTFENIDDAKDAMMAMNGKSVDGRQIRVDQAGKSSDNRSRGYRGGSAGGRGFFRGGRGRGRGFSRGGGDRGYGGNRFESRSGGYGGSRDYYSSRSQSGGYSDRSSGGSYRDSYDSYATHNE

ZNF385C = ZNF385C (UniProt Q66K41)
grap2_human GRAP2 = grap2_human GRAP2 (UniProt O75791)
tyk2_human TYK2 = tyk2_human TYK2 (UniProt P29597)
pex39_human PEX39 = pex39_human PEX39 (UniProt Q5I0X4)
pex39_human PEX39, sequence (Q5I0X4 whole entry): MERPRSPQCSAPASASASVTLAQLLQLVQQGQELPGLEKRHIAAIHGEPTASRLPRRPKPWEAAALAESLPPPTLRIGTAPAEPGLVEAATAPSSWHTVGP

prr3_human PRR3 = prr3_human PRR3 (UniProt P79522)
ytdc1_human YTHDC1 = ytdc1_human YTHDC1 (UniProt Q96MU7)
dpyl5_human DPYSL5 = target: T1, dpyl5_human DPYSL5 (UniProt Q9BPU6)
T1 sequence: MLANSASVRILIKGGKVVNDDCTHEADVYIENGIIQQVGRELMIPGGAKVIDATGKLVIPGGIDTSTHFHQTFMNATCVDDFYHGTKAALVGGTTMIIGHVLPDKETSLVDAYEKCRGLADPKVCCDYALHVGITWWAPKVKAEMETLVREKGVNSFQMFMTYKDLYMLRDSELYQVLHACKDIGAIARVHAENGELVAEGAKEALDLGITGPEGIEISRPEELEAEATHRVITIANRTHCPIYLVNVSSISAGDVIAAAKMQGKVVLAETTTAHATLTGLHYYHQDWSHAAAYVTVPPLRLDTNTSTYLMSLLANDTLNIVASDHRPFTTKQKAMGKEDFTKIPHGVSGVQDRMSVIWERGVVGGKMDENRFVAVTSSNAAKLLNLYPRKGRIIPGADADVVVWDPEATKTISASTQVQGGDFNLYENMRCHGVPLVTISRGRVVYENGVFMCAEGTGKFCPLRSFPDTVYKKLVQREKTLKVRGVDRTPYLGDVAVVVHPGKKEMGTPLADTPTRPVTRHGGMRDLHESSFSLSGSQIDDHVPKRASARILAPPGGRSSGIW

dpyl3_human DPYSL3 = dpyl3_human DPYSL3 (UniProt Q14195)
gors2_human GORASP2 = gors2_human GORASP2 (UniProt Q9H8Y8)
dest_human DSTN = target: T2, dest_human DSTN (UniProt P60981)
T2 sequence: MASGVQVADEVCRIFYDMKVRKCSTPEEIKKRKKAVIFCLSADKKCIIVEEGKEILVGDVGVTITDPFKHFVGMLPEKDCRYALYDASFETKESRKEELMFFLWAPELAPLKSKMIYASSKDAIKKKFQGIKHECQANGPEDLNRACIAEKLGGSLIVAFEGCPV

ntaq1_human NTAQ1 = ntaq1_human NTAQ1 (UniProt Q96HA8)
inca1_human INCA1 [1] = target: inca1_human INCA1 (UniProt Q0VD86)
inca1_human INCA1, sequence (Q0VD86 whole entry): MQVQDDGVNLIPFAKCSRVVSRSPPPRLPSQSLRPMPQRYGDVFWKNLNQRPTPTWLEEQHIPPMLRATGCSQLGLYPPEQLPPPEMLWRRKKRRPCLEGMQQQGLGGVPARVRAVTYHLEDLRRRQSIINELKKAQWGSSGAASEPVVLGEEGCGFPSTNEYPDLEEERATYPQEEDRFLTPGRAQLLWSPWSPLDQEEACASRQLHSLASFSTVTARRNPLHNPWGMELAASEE

itf2_human TCF4 [2] = target: itf2_human TCF4 (UniProt P15884)
itf2_human TCF4, sequence (P15884 whole entry): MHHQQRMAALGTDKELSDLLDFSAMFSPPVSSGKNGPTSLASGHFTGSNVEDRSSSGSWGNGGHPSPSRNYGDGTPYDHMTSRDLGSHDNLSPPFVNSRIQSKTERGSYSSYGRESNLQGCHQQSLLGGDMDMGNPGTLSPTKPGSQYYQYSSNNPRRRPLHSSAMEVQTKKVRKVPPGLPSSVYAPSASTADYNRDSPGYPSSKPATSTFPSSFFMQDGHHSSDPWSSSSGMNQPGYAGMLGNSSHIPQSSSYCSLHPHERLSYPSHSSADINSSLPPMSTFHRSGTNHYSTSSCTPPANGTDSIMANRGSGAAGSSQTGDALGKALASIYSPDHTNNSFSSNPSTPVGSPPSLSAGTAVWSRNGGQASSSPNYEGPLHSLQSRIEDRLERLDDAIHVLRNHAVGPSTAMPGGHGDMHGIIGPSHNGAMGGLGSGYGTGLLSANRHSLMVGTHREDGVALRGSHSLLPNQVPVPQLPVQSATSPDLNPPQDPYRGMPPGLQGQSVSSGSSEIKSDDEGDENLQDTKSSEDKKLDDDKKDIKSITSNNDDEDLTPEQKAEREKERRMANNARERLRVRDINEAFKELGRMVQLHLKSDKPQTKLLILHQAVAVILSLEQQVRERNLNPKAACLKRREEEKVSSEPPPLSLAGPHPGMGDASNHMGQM

cep76_human CEP76 = cep76_human CEP76 (UniProt Q8TAP6)
kr108_human KRTAP10-8 [3] = target: kr108_human KRTAP10-8 (UniProt P60410)
kr108_human KRTAP10-8, sequence (P60410 whole entry): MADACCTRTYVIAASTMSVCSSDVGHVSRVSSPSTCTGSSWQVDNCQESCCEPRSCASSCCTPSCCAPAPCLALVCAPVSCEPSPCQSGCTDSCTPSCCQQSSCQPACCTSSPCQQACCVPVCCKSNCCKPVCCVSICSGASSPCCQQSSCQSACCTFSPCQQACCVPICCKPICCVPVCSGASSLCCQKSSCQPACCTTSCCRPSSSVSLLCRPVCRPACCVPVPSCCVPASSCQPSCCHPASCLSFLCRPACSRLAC

inca1_human INCA1 [4] = target: inca1_human INCA1 (UniProt Q0VD86); remark: listed apart in the source
itf2_human TCF4 [5] = target: itf2_human TCF4 (UniProt P15884); remark: listed apart in the source
neca2_human NECAB2 = neca2_human NECAB2 (UniProt Q7Z6G3)
taso2_human TASOR2 = taso2_human TASOR2 (UniProt Q5VWN6)
tri23_human TRIM23 = tri23_human TRIM23 (UniProt P36406)
ikzf3_human IKZF3 = ikzf3_human IKZF3 (UniProt Q9UKT9)
kr103_human KRTAP10-3 = kr103_human KRTAP10-3 (UniProt P60369)
mdfi_human MDFI = mdfi_human MDFI (UniProt Q99750)
kr105_human KRTAP10-5 = kr105_human KRTAP10-5 (UniProt P60370)
kr101_human KRTAP10-1 = kr101_human KRTAP10-1 (UniProt P60331)
ctsr1_human CATSPER1 = ctsr1_human CATSPER1 (UniProt Q8NEC5)
ctsr1_human CATSPER1, sequence (Q8NEC5 whole entry): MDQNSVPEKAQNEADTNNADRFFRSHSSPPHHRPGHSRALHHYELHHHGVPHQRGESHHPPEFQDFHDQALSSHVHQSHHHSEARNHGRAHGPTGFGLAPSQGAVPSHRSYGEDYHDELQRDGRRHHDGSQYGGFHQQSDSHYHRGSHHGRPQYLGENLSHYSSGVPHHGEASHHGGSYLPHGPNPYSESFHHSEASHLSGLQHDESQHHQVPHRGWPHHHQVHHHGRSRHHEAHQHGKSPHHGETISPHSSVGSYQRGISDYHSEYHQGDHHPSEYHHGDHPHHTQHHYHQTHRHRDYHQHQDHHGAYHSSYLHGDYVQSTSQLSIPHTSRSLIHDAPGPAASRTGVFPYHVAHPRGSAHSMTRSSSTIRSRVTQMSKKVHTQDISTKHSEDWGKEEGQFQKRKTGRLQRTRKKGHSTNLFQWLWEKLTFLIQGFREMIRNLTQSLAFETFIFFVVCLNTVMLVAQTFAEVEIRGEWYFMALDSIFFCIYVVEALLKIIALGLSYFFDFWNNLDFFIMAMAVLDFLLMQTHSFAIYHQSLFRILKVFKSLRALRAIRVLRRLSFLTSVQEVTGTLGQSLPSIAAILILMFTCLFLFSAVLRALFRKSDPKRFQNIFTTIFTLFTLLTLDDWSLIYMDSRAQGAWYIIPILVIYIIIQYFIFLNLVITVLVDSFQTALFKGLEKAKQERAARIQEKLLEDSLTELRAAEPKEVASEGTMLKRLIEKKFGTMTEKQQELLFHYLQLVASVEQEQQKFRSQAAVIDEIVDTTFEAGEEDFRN

creb3_human CREB3 = creb3_human CREB3 (UniProt O43889)
stat3_human STAT3 = stat3_human STAT3 (UniProt P40763)
efs_human EFS = efs_human EFS (UniProt O43281)
aakb2_human PRKAB2 = aakb2_human PRKAB2 (UniProt O43741)
zbt24_human ZBTB24 = zbt24_human ZBTB24 (UniProt O43167)
aagab_human AAGAB = aagab_human AAGAB (UniProt Q6PD74)
kr108_human KRTAP10-8 [6] = target: kr108_human KRTAP10-8 (UniProt P60410); remark: listed apart in the source

Zinc finger protein 559 (Homo sapiens), Q9BR84 K62I, sequence (Q9BR84 whole entry K62I): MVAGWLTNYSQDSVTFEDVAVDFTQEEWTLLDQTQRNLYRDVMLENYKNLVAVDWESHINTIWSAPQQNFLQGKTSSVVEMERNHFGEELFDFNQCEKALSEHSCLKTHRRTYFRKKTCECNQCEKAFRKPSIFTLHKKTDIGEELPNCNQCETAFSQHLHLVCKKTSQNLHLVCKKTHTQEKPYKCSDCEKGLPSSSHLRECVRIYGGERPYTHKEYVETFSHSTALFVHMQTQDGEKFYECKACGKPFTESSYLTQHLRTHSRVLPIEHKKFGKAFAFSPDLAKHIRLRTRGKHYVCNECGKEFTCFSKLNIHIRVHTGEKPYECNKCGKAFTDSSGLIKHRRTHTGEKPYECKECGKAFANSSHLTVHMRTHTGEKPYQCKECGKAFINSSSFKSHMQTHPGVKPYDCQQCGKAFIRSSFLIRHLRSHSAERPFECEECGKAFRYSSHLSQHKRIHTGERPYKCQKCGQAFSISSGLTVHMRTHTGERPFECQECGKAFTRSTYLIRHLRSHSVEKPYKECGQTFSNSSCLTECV
Serine/threonine-protein kinase Nek6 (Homo sapiens), Q9HC98 R195C, sequence (Q9HC98 whole entry R195C): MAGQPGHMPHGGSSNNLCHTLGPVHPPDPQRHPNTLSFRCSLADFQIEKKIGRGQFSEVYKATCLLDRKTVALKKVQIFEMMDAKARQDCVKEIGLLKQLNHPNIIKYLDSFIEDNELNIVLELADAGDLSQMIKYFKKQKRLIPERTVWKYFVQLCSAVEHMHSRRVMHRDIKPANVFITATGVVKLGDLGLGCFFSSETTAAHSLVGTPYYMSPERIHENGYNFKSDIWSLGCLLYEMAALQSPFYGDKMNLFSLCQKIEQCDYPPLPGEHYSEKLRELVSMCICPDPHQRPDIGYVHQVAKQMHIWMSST
Tyrosine-protein kinase Blk (Homo sapiens), P51451 I338T, sequence (P51451 whole entry I338T): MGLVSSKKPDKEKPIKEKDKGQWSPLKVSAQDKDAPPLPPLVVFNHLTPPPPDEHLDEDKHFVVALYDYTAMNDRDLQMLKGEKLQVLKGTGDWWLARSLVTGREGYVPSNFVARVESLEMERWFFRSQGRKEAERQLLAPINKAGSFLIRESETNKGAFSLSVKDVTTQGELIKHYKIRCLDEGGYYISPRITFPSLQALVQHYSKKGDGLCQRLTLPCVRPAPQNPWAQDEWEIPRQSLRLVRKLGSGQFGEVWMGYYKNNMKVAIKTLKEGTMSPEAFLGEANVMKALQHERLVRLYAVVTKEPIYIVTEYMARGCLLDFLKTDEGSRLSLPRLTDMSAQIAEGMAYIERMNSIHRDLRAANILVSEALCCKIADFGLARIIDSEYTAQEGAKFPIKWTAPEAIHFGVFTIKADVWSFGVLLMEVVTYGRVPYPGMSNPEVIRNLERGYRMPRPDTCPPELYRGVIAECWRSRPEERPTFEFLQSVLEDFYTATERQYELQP
Apolipoprotein A-II (Homo sapiens), P02652 Q71R, sequence (P02652 whole entry Q71R): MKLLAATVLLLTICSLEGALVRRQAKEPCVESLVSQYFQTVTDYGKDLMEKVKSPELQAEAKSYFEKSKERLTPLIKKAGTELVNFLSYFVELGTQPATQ
zn446_human ZNF446, sequence (Q9NWS9 whole entry): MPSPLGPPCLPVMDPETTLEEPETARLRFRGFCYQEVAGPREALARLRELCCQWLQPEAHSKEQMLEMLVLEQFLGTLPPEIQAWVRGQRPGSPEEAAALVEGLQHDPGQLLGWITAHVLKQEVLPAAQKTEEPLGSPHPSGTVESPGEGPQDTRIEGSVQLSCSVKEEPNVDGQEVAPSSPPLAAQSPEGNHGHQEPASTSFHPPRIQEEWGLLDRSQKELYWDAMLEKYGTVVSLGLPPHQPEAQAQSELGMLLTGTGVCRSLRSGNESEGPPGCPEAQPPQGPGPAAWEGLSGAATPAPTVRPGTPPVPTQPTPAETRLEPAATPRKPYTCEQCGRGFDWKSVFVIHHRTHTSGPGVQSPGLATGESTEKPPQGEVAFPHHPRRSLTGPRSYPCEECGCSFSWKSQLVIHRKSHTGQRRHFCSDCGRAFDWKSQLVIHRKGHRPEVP

Substance: Zinc finger and SCAN domain-containing protein 30 (Homo sapiens), Q86W11 G186S
- effect of a mutation on the interaction (zn446_human ZNF446): with no effect

Substance: NEDD4-like E3 ubiquitin-protein ligase WWP2 (Homo sapiens), O00308 R178W
- effect of a mutation on the interaction (pdli7_human PDLIM7): with no effect
- effect of a mutation on the interaction (leg9b_human LGALS9B): with no effect
- effect of a mutation on the interaction (erep1_human ENTREP1): with no effect
- effect of a mutation on the interaction (fxl18_human FBXL18): with no effect
- effect of a mutation on the interaction (hnrl1_human HNRNPUL1): with no effect

Substance: Dihydropyrimidinase-related protein 3 (Homo sapiens), Q14195 V25I
- effect of a mutation on the interaction (dpyl2_human DPYSL2): with no effect

Substance: Heterogeneous nuclear ribonucleoprotein K (Homo sapiens), P61978 R377H
- effect of a mutation on the interaction (U2AF1): with no effect
- effect of a mutation on the interaction (qki_human QKI): with no effect
- effect of a mutation on the interaction (abi2_human ABI2): with no effect
- effect of a mutation on the interaction (rbm7_human RBM7): with no effect
- effect of a mutation on the interaction (hnrll_human HNRNPLL): with no effect
- effect of a mutation on the interaction (rbm42_human RBM42): with no effect
- effect of a mutation on the interaction (cirbp_human CIRBP): with no effect
- effect of a mutation on the interaction (ZNF385C): with no effect
- effect of a mutation on the interaction (grap2_human GRAP2): with no effect
- effect of a mutation on the interaction (tyk2_human TYK2): with no effect
- effect of a mutation on the interaction (pex39_human PEX39): with no effect
- effect of a mutation on the interaction (prr3_human PRR3): with no effect
- effect of a mutation on the interaction (ytdc1_human YTHDC1): with no effect

Substance: Dihydropyrimidinase-related protein 2 (Homo sapiens) (from UniProt Q16555) R496C
- effect of a mutation on the interaction (dpyl5_human DPYSL5): with no effect
- effect of a mutation on the interaction (dpyl3_human DPYSL3): with no effect
- effect of a mutation on the interaction (gors2_human GORASP2): disrupting interaction strength

Substance: Actin, cytoplasmic 1 (Homo sapiens) (from UniProt P60709) R372C
- effect of a mutation on the interaction (dest_human DSTN): with no effect
- effect of a mutation on the interaction (ntaq1_human NTAQ1): with no effect

Substance: Calcium-binding protein 5 (Homo sapiens), Q9NP86 T59M
- effect of a mutation on the interaction (inca1_human INCA1 [1]): with no effect
- effect of a mutation on the interaction (itf2_human TCF4 [2]): with no effect
- effect of a mutation on the interaction (cep76_human CEP76): with no effect

Substance: Solute carrier family 23 member 1 (Homo sapiens), Q9UHI7 L461M
- effect of a mutation on the interaction (kr108_human KRTAP10-8 [3]): with no effect

Substance: Serine/threonine-protein kinase Nek6 (Homo sapiens), Q9HC98 R195C
- effect of a mutation on the interaction (inca1_human INCA1 [4]): with no effect
- effect of a mutation on the interaction (itf2_human TCF4 [5]): with no effect
- effect of a mutation on the interaction (neca2_human NECAB2): disrupting interaction strength
- effect of a mutation on the interaction (taso2_human TASOR2): disrupting interaction strength
- effect of a mutation on the interaction (tri23_human TRIM23): disrupting interaction strength
- effect of a mutation on the interaction (ikzf3_human IKZF3): disrupting interaction strength

Substance: Zinc finger protein 559 (Homo sapiens), Q9BR84 K62I
- effect of a mutation on the interaction (kr103_human KRTAP10-3): with no effect
- effect of a mutation on the interaction (mdfi_human MDFI): with no effect
- effect of a mutation on the interaction (kr105_human KRTAP10-5): with no effect
- effect of a mutation on the interaction (kr101_human KRTAP10-1): with no effect

Substance: Apolipoprotein A-II (Homo sapiens), P02652 Q71R
- effect of a mutation on the interaction (ctsr1_human CATSPER1): with no effect
- effect of a mutation on the interaction (creb3_human CREB3): with no effect

Substance: Tyrosine-protein kinase Blk (Homo sapiens), P51451 I338T
- effect of a mutation on the interaction (stat3_human STAT3): disrupting interaction strength
- effect of a mutation on the interaction (efs_human EFS): with no effect

Substance: Krueppel-like factor 15 (Homo sapiens), Q9UIH9 G206R
- effect of a mutation on the interaction (aakb2_human PRKAB2): with no effect
- effect of a mutation on the interaction (zbt24_human ZBTB24): with no effect

Substance: AP-2 complex subunit sigma (Homo sapiens), P53680 G64D
- effect of a mutation on the interaction (aagab_human AAGAB): with no effect

Substance: Cyclin-J-like protein (Homo sapiens), Q8IV13 W188R
- effect of a mutation on the interaction (kr108_human KRTAP10-8 [6]): with no effect
